In doi:10.1101/2024.09.12.612744 (bioRxiv, 2024):
Changes are numbered by the printed parent chain. Numbers in names are those of the source.

Assays:
SEC = molecular target: the molecule itself; assay: SEC
cryo-EM structure = molecular target: the molecule itself; assay: cryo-EM structure

B1: PKD2 WT channel (hPKD2: 52-793) (domain or fragment, human, UniProt Q13563 52-793, looked up)
chain: LEIEMQRIRQAAARDPPAGAAASPSPPLSSCSRQAWSRDNPGFEAEEEEEEVEGEEGGMVVEMDVEWRPGSRRSAASSAVSSVGARSRGLGGYHGAGHPSGRRRRREDQGPPCPSPVGGGDPLHRHLPLEGQPPRVAWAERLVRGLRGLWGTRLMEESSTNREKYLKSVLRELVTYLLFLIVLCILTYGMMSSNVYYYTRMMSQLFLDTPVSKTEKTNFKTLSSMEDFWKFTEGSLLDGLYWKMQPSNQTEADNRSFIFYENLLLGVPRIRQLRVRNGSCSIPQDLRDEIKECYDVYSVSSEDRAPFGPRNGTAWIYTSEKDLNGSSHWGIIATYSGAGYYLDLSRTREETAAQVASLKKNVWLDRGTRATFIDFSVYNANINLFCVVRLLVEFPATGGVIPSWQFQPLKLIRYVTTFDFFLAACEIIFCFFIFYYVVEEILEIRIHKLHYFRSFWNCLDVVIVVLSVVAIGINIYRTSNVEVLLQFLEDQNTFPNFEHLAYWQIQFNNIAAVTVFFVWIKLFKFINFNRTMSQLSTTMSRCAKDLFGFAIMFFIIFLAYAQLAYLVFGTQVDDFSTFQECIFTQFRIILGDINFAEIEEANRVLGPIYFTTFVFFMFFILLNMFLAIINDTYSEVKSDLAQQKAEMELSDLIRKGYHKALVKLKLKKNTVDDISESLRQGGGKLNFDELRQDLKGKGHTDAEIEAIFTKYDQDGDQELTEHEHQQMRDDLEKEREDLDLDH
B1: binds (SEC).

B2: PKD2 R638C variant channel (hPKD2: 52-793) (domain or fragment, human, UniProt Q13563 52-793, looked up)
chain: B1 chain with R587C
In the case of B2, the “stoichiometry N” value (cryo-EM structure) is reported as 4.

B3: PKD2 F629S variant channel (hPKD2: 52-793) (domain or fragment, human, UniProt Q13563 52-793, looked up)
chain: B1 chain with F578S
In the case of B3, the “stoichiometry N” value (cryo-EM structure) is reported as 4.
